# From the supplement of paper PMC7877785
# ± gives the uncertainty stated by the source.
# Test: self-splicing fitness, log relative to wild type (ln ratio); higher = more splicing; Tetrahymena group I intron in knt gene, E. coli kanamycin selection, DiMSum; sequences stand for … in CUCUCU…GGAGGGAAAAGUUAUCAGGCAUGCACCUGGUAGCUAGUCUUUAAACCAAUAGAUUGCAUCGGUUUAAAAGGCAAGACCGUCAAAUUGCGGGAAAGGGGUCAACAGCCGUUCAGUACCAAGUCUCAGGGGAAACUUUGAGAUGGCCUUGCAAAGGGUAUGGUAAUAAGCUGACGGACAUGGUCCUAACCACGCAGCCAAGUCCUAAGUCAACAGAUCUUCUGUUGAUAUGGAUGCAGUUCACAGACUAAAUGUCGGUCGGGGAAGAUGUAUUCUUCUCAUAAGAUAUAGUCGGACCUCUCCUUAAUGGGAGCUAGCGGAUGAAGUGAUGCAACACUGGAGCCGCUGGGAACUAAUUUGUAUGCGAAAGUAUAUUGAUUAGUUUUGGAGUACUCGUGGUCG
# Method in brief: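 The eight P1ex-region nucleotides of an intron in the knt kanamycin-resistance gene on pET-22b(+) were all randomised and the library put into E. coli BL21(DE3). Six replicate transformations were grown overnight at 37°C or 30°C on LB agar with or without 25 μg/mL kanamycin, together with 100 μg/mL carbenicillin, 50 μM IPTG and 0.2% rhamnose. Colonies were pooled and amplicon-sequenced on an Illumina HiSeq 2500. Fitness from DiMSum is the error-weighted combination of wild-type-normalised replicate fold changes, kanamycin over none.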
Sequence,self-splicing fitness (ln) (30 °C),self-splicing fitness (ln) (37 °C)
AGGCAGCAAUAUUACGAGGU,-2.14 ± 0.15,-2.68 ± 0.26
UUCAAGCAAUAUUACGCCCG,-1.16 ± 0.1,-0.594 ± 0.15
GCGUAGCAAUAUUACGGUAU,-2.03 ± 0.077,-0.828 ± 0.1
GGUCAGCAAUAUUACGCACU,-2.12 ± 0.27,-0.976 ± 0.24
GGGGAGCAAUAUUACGCGUC,-3.26 ± 0.43,-1.47 ± 0.23
UAGAAGCAAUAUUACGGAAA,-2.02 ± 0.17,-1.41 ± 0.24
CAAGAGCAAUAUUACGUGUU,-3.47 ± 0.15,-3.58 ± 0.26
CGCCAGCAAUAUUACGAGGA,-3.07 ± 0.19,-2.41 ± 0.22
GCGGAGCAAUAUUACGCCAA,-2.32 ± 0.44,–
CGACAGCAAUAUUACGGUCU,-0.546 ± 0.039,0.187 ± 0.056
AAAAAGCAAUAUUACGAUGU,-0.893 ± 0.064,-0.0506 ± 0.079
GUGCAGCAAUAUUACGAGGG,-2.79 ± 0.21,-1.87 ± 0.27
AUUCAGCAAUAUUACGUACA,-0.718 ± 0.095,0.309 ± 0.11
GGCCAGCAAUAUUACGGAGC,-2.25 ± 0.18,-0.92 ± 0.21
GGGGAGCAAUAUUACGAGUA,-2.89 ± 0.3,-2.98 ± 0.43
GUUCAGCAAUAUUACGACCG,-3.83 ± 0.18,-1.93 ± 0.23
CAGCAGCAAUAUUACGCACA,-0.847 ± 0.088,-0.607 ± 0.093
GCGCAGCAAUAUUACGACAA,-0.598 ± 0.12,-0.342 ± 0.11
UGCAAGCAAUAUUACGCACG,-2.14 ± 0.3,-0.955 ± 0.13
UCAUAGCAAUAUUACGUGCU,-2.6 ± 0.17,-1.99 ± 0.11
GUAGAGCAAUAUUACGUAUA,-1.7 ± 0.28,-0.319 ± 0.25
GUAGAGCAAUAUUACGGAAG,-2.83 ± 0.29,-1.42 ± 0.4
UAUUAGCAAUAUUACGGGGU,–,-1.52 ± 0.38
CUACAGCAAUAUUACGGCAG,-1.07 ± 0.063,-0.452 ± 0.088
UGACAGCAAUAUUACGGAAC,-2.81 ± 0.24,-2.42 ± 0.24

Sequence,self-splicing fitness (ln) (30 °C),self-splicing fitness (ln) (37 °C)
UGGUAGCAAUAUUACGUCGA,-0.768 ± 0.1,0.144 ± 0.1
ACCCAGCAAUAUUACGCGGC,-2.93 ± 0.17,-2.76 ± 0.26
AAAGAGCAAUAUUACGGGGG,-2.5 ± 0.34,-2.31 ± 0.39
CAACAGCAAUAUUACGGACA,-1.81 ± 0.1,-0.798 ± 0.097
CACCAGCAAUAUUACGAAAG,-0.231 ± 0.041,-0.141 ± 0.064
CGGCAGCAAUAUUACGACCU,-0.341 ± 0.089,-0.0632 ± 0.11
CGGUAGCAAUAUUACGAAUU,-2.07 ± 0.24,-2.34 ± 0.24
ACCAAGCAAUAUUACGUUGG,-3.54 ± 0.12,-2.22 ± 0.14
AUCUAGCAAUAUUACGACGC,-0.785 ± 0.089,-0.226 ± 0.13
CUAGAGCAAUAUUACGAAAC,-3.57 ± 0.31,-2.41 ± 0.39
CUUCAGCAAUAUUACGUAUG,-0.871 ± 0.066,-0.276 ± 0.074
UCACAGCAAUAUUACGCAGU,-4.13 ± 0.21,-2.17 ± 0.16
CCCAAGCAAUAUUACGAAUU,-3.33 ± 0.12,-2.87 ± 0.15
UCCAAGCAAUAUUACGCGAA,-2.43 ± 0.13,-0.748 ± 0.12
UGUAAGCAAUAUUACGCGUC,-3.31 ± 0.25,-2.65 ± 0.32
AGUAAGCAAUAUUACGGGGU,-3.24 ± 0.22,-2.46 ± 0.26
UCUCAGCAAUAUUACGAUGA,-1.01 ± 0.12,-0.477 ± 0.11
CUCUAGCAAUAUUACGGAGG,-2.14 ± 0.2,-1.32 ± 0.21
GGUGAGCAAUAUUACGCCUG,–,-1.47 ± 0.28
ACUUAGCAAUAUUACGACCG,-0.573 ± 0.18,-0.217 ± 0.26
AUUCAGCAAUAUUACGGCGU,0.256 ± 0.057,0.488 ± 0.074
AGGCAGCAAUAUUACGGGGC,-3.89 ± 0.37,-2.07 ± 0.23
ACUGAGCAAUAUUACGGACC,-2.23 ± 0.26,-1.14 ± 0.26
GUGCAGCAAUAUUACGAACC,-1.94 ± 0.3,0.395 ± 0.48
GAGCAGCAAUAUUACGCGGA,-2.11 ± 0.11,-0.965 ± 0.09

Sequence,self-splicing fitness (ln) (30 °C),self-splicing fitness (ln) (37 °C)
UCUAAGCAAUAUUACGUAAA,-1.36 ± 0.097,-0.985 ± 0.12
GCAGAGCAAUAUUACGUUCU,-2.78 ± 0.24,-2.18 ± 0.29
GCUAAGCAAUAUUACGUCGC,-2.46 ± 0.19,-2.55 ± 0.29
GACUAGCAAUAUUACGGCUU,-0.318 ± 0.099,0.0615 ± 0.14
CUUGAGCAAUAUUACGCUGG,-3.81 ± 0.25,-2.17 ± 0.17
ACCCAGCAAUAUUACGACAA,-1.66 ± 0.1,-1.09 ± 0.1
GGCGAGCAAUAUUACGCGUG,-1.15 ± 0.19,-0.666 ± 0.2
CGCUAGCAAUAUUACGUUAU,-4.99 ± 0.32,-3.36 ± 0.26
UUCAAGCAAUAUUACGCGGU,-2.91 ± 0.17,-1.96 ± 0.17
UGUGAGCAAUAUUACGAUGG,-2.74 ± 0.2,-2.27 ± 0.19
GCGCAGCAAUAUUACGUAUA,-1.31 ± 0.06,-1.05 ± 0.081
CAGUAGCAAUAUUACGACAU,-3.226 ± 0.023,-1.83 ± 0.036
GUGCAGCAAUAUUACGGAUG,-2.72 ± 0.29,-1.74 ± 0.25
UUCAAGCAAUAUUACGGCUU,-2.58 ± 0.14,-1.16 ± 0.14
UGUGAGCAAUAUUACGGAAA,-2.62 ± 0.38,-2.61 ± 0.31
UUUGAGCAAUAUUACGCUUG,-3.52 ± 0.37,-1.63 ± 0.4
CAAGAGCAAUAUUACGGAAU,-3.66 ± 0.26,-2.42 ± 0.23
AACCAGCAAUAUUACGUGCG,-0.832 ± 0.053,-0.365 ± 0.064
CCGCAGCAAUAUUACGAGUU,-4.11 ± 0.22,-2.56 ± 0.21
GCUCAGCAAUAUUACGGUGA,-3.42 ± 0.25,-1.69 ± 0.16
UUCAAGCAAUAUUACGUGAC,-4.47 ± 0.39,-2.69 ± 0.27
GAGUAGCAAUAUUACGUAGA,-4.32 ± 0.28,-2.18 ± 0.19
CAAGAGCAAUAUUACGACAG,-0.511 ± 0.08,0.045 ± 0.11
CAACAGCAAUAUUACGCGUU,-3.77 ± 0.14,-1.62 ± 0.08
CCAAAGCAAUAUUACGGCCA,-2.38 ± 0.24,-2.76 ± 0.33
